T1: ARHGEF11, O15085
T1 sequence (O15085 42-136, limits assumed, looked up): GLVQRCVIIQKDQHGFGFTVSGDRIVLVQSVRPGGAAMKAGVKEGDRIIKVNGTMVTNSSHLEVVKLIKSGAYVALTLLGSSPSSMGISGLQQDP

T2: DFNB31_1, Q9P202
T2 sequence (Q9P202 135-233, limits assumed, looked up): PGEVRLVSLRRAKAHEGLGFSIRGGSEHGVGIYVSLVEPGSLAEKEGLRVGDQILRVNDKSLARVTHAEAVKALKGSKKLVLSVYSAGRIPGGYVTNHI

T3: GRIP1_7, Q9Y3R0
T3 sequence (Q9Y3R0 999-1096, limits assumed, looked up): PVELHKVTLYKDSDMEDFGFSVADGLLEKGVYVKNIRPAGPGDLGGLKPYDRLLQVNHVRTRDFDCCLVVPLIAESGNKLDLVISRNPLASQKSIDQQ

T4: HTRA4, P83105
T4 sequence (P83105 378-476, limits assumed, looked up): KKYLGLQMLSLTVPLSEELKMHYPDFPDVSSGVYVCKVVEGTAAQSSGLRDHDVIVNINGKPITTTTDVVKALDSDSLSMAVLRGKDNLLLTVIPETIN

T5: LIN7A, O14910
T5 sequence (O14910 103-200, limits assumed, looked up): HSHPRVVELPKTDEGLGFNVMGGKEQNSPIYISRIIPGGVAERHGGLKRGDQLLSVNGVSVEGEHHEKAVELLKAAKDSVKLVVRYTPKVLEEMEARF

T6: LNX2_2, Q8N448
T6 sequence (Q8N448 334-432, limits assumed, looked up): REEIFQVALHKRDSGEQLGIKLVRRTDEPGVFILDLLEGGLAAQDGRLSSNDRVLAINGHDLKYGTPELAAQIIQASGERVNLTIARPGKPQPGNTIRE

T7: MPDZ_10, O75970
T7 sequence (O75970 1624-1722, limits assumed, looked up): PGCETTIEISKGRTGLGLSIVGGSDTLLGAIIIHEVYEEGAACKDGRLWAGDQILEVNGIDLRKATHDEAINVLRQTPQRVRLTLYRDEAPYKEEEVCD

T8: MPP2, Q14168
T8 sequence (Q14168 180-250, limits assumed, looked up): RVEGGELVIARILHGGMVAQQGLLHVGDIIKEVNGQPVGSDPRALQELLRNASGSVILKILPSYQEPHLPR

T9: NHERF3_4, Q5T2W1
T9 sequence (Q5T2W1 373-468, limits assumed, looked up): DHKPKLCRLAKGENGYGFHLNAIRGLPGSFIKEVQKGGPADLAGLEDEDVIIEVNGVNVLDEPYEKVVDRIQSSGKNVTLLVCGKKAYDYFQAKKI

T10: PCLO, Q9Y6V0
T10 sequence (Q9Y6V0 4491-4600, limits assumed, looked up): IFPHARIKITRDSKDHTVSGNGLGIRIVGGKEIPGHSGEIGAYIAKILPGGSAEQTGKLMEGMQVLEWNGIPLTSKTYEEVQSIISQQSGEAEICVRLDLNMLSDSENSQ

T11: RADIL, Q96JH8
T11 sequence (Q96JH8 971-1071, limits assumed, looked up): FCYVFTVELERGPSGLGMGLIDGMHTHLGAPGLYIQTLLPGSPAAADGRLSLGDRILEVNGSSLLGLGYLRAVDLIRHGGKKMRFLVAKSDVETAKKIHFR

T12: TX1BP3, O14907
T12 sequence (O14907 10-122, limits assumed, looked up): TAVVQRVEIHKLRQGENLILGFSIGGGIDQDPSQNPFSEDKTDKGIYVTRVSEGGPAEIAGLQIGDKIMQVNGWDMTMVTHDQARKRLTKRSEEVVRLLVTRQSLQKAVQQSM


Legend:
Assay in all cases: holdup assay
Parameters in all cases: key: below the threshold = too weak to quantify, mostly under pKd 3.1 to 4
Details in all cases: plain residues with an end cap or a label only (N-terminal biotin on a linker: ado-ado)
ARHGEF11, O15085 = biological target: T1, ARHGEF11, O15085
DFNB31_1, Q9P202 = biological target: T2, DFNB31_1, Q9P202
FRMPD2_1, Q68DX3 = biological target: FRMPD2_1, Q68DX3
FRMPD2_2, Q68DX3 = biological target: FRMPD2_2, Q68DX3
GOPC, Q9HD26 = biological target: GOPC, Q9HD26
GRIP1_7, Q9Y3R0 = biological target: T3, GRIP1_7, Q9Y3R0
HTRA4, P83105 = biological target: T4, HTRA4, P83105
IL16_3, Q14005 = biological target: IL16_3, Q14005
Inadl_10, Q8NI35 = biological target: Inadl_10, Q8NI35
Inadl_5, Q8NI35 = biological target: Inadl_5, Q8NI35
Inadl_9, Q8NI35 = biological target: Inadl_9, Q8NI35
LIN7A, O14910 = biological target: T5, LIN7A, O14910
LNX1_3, Q8TBB1 = biological target: LNX1_3, Q8TBB1
LNX2_2, Q8N448 = biological target: T6, LNX2_2, Q8N448
MAGI1_1, Q96QZ7 = biological target: MAGI1_1, Q96QZ7
MAGI1_2, Q96QZ7 = biological target: MAGI1_2, Q96QZ7
MAGI3_2, Q5TCQ9 = biological target: MAGI3_2, Q5TCQ9
MPDZ_10, O75970 = biological target: T7, MPDZ_10, O75970
MPP2, Q14168 = biological target: T8, MPP2, Q14168
NHERF3_4, Q5T2W1 = biological target: T9, NHERF3_4, Q5T2W1
PCLO, Q9Y6V0 = biological target: T10, PCLO, Q9Y6V0
RADIL, Q96JH8 = biological target: T11, RADIL, Q96JH8
TJP1_2, Q07157 = biological target: TJP1_2, Q07157
TJP2_1, Q9UDY2 = biological target: TJP2_1, Q9UDY2
TX1BP3, O14907 = biological target: T12, TX1BP3, O14907

TJP2_1, Q9UDY2, sequence (Q9UDY2 24-128): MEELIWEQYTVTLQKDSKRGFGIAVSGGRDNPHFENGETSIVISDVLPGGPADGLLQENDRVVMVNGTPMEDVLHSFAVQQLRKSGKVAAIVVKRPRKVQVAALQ
Inadl_10, Q8NI35, sequence (Q8NI35 1673-1763): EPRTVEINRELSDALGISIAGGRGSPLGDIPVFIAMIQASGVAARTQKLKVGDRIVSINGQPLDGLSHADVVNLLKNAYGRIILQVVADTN
MAGI1_2, Q96QZ7, sequence (Q96QZ7 456-580): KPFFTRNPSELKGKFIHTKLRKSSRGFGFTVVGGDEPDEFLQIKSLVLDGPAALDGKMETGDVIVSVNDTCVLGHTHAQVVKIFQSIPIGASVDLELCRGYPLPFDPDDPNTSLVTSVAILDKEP
LNX1_3, Q8TBB1, sequence (Q8TBB1 500-596): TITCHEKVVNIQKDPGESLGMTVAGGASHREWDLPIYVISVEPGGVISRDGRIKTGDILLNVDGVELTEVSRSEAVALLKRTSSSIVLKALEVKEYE
Inadl_9, Q8NI35, sequence (Q8NI35 1530-1615): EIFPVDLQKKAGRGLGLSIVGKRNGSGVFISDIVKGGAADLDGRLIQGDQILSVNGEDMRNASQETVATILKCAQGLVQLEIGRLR
FRMPD2_2, Q68DX3, sequence (Q68DX3 944-1038): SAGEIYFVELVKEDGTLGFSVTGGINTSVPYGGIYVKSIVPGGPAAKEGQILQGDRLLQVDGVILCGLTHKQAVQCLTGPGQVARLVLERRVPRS
MAGI1_1, Q96QZ7, sequence (Q96QZ7 1-106): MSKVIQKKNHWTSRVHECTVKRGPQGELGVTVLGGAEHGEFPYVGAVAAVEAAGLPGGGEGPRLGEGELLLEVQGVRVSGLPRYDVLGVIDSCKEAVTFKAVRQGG
MAGI3_2, Q5TCQ9, sequence (Q5TCQ9 398-503): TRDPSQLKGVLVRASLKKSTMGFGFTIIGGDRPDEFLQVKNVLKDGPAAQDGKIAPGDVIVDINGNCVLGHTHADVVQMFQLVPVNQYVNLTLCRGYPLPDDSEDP
TJP1_2, Q07157, sequence (Q07157 181-274): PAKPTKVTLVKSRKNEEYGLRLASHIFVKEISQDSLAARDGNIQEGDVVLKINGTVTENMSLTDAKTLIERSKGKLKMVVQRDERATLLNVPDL
FRMPD2_1, Q68DX3, sequence (Q68DX3 770-861): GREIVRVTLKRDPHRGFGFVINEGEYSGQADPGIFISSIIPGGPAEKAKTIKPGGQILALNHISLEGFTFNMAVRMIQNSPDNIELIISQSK
Inadl_5, Q8NI35, sequence (Q8NI35 673-780): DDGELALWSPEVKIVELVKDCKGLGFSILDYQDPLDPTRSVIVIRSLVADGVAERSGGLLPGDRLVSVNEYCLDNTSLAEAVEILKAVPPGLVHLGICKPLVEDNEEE
IL16_3, Q14005, sequence (Q14005 1107-1207): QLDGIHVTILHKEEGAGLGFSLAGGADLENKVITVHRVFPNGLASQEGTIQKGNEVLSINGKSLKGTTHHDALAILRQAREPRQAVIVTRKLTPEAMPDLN

| pKd (ARHGEF11, O15085) | pKd (DFNB31_1, Q9P202) | pKd (FRMPD2_1, Q68DX3) | pKd (FRMPD2_2, Q68DX3) | pKd (GOPC, Q9HD26) | pKd (GRIP1_7, Q9Y3R0) | pKd (HTRA4, P83105) | pKd (IL16_3, Q14005) | pKd (Inadl_10, Q8NI35) | pKd (Inadl_5, Q8NI35) | pKd (Inadl_9, Q8NI35) | pKd (LIN7A, O14910) | pKd (LNX1_3, Q8TBB1) | pKd (LNX2_2, Q8N448) | pKd (MAGI1_1, Q96QZ7) | pKd (MAGI1_2, Q96QZ7) | pKd (MAGI3_2, Q5TCQ9) | pKd (MPDZ_10, O75970) | pKd (MPP2, Q14168) | pKd (NHERF3_4, Q5T2W1) | Binder | other results |
| --- | --- | --- | --- | --- | --- | --- | --- | --- | --- | --- | --- | --- | --- | --- | --- | --- | --- | --- | --- | --- | --- |
| 3.83 | below the threshold | 3.53 | below the threshold | below the threshold | 3.52 | 3.98 | below the threshold | below the threshold | below the threshold | below the threshold | below the threshold | below the threshold | 3.96 | below the threshold | below the threshold | below the threshold | below the threshold | below the threshold | 3.59 | PEYLGLDVPV [ERBB2, P04626] | pKd (PCLO, Q9Y6V0): below the threshold; pKd (RADIL, Q96JH8): below the threshold; pKd (TJP1_2, Q07157): 3.65; pKd (TJP2_1, Q9UDY2): below the threshold; pKd (TX1BP3, O14907): 4.19 |
| below the threshold | below the threshold | below the threshold | 3.78 | below the threshold | below the threshold | below the threshold | below the threshold | below the threshold | below the threshold | below the threshold | below the threshold | below the threshold | below the threshold | below the threshold | below the threshold | 4.32 | below the threshold | below the threshold | below the threshold | KKMPSIESDV [GRIN2A, Q12879] | pKd (PCLO, Q9Y6V0): below the threshold; pKd (RADIL, Q96JH8): below the threshold; pKd (TJP1_2, Q07157): below the threshold; pKd (TJP2_1, Q9UDY2): below the threshold; pKd (TX1BP3, O14907): 5.13 |
| 4.59 | below the threshold | 3.53 | below the threshold | 4.35 | below the threshold | below the threshold | below the threshold | below the threshold | 4.21 | below the threshold | below the threshold | below the threshold | 5.09 | below the threshold | 4.82 | 5.42 | 3.57 | below the threshold | 3.73 | AKPSRISTVV [IQSEC2, Q5JU85] | pKd (PCLO, Q9Y6V0): below the threshold; pKd (RADIL, Q96JH8): 4.32; pKd (TJP1_2, Q07157): below the threshold; pKd (TJP2_1, Q9UDY2): 4.46; pKd (TX1BP3, O14907): 3.76 |
| 3.71 | below the threshold | below the threshold | below the threshold | below the threshold | below the threshold | 3.95 | below the threshold | below the threshold | 3.48 | 3.58 | below the threshold | below the threshold | 4.56 | below the threshold | below the threshold | below the threshold | below the threshold | below the threshold | below the threshold | HSGYRLNDYV [CLDN14, O95500] | pKd (PCLO, Q9Y6V0): below the threshold; pKd (RADIL, Q96JH8): 4.6; pKd (TJP1_2, Q07157): below the threshold; pKd (TJP2_1, Q9UDY2): 4.72; pKd (TX1BP3, O14907): 4.24 |
| below the threshold | 3.62 | below the threshold | below the threshold | below the threshold | below the threshold | 3.75 | below the threshold | below the threshold | below the threshold | 3.58 | below the threshold | below the threshold | below the threshold | below the threshold | below the threshold | below the threshold | below the threshold | below the threshold | 3.48 | TSQESEDTYL [TBC1D10A, Q9BXI6] | pKd (PCLO, Q9Y6V0): below the threshold; pKd (RADIL, Q96JH8): below the threshold; pKd (TJP1_2, Q07157): below the threshold; pKd (TJP2_1, Q9UDY2): below the threshold; pKd (TX1BP3, O14907): below the threshold |
| 4.2 | below the threshold | below the threshold | 3.82 | 3.5 | below the threshold | below the threshold | below the threshold | below the threshold | below the threshold | below the threshold | below the threshold | below the threshold | below the threshold | below the threshold | below the threshold | 4.05 | 3.85 | below the threshold | below the threshold | DDENIRTSDV [PLEKHA2, Q9HB19] | pKd (PCLO, Q9Y6V0): below the threshold; pKd (RADIL, Q96JH8): below the threshold; pKd (TJP1_2, Q07157): below the threshold; pKd (TJP2_1, Q9UDY2): below the threshold; pKd (TX1BP3, O14907): 4.75 |

From article PMC9482650, “Quantitative fragmentomics allow affinity mapping of interactomes” (Nature Communications, 2022)
